According to PMC10954480:

Target: 6x His-tagged RecB nuclease domain (RecB^928–1180) (Escherichia coli) (UniProt P08394)
Experiment: pull-down

Chain of 6x His-tagged RecB nuclease domain (RecB^928–1180) (Escherichia coli) (P08394 928-1180): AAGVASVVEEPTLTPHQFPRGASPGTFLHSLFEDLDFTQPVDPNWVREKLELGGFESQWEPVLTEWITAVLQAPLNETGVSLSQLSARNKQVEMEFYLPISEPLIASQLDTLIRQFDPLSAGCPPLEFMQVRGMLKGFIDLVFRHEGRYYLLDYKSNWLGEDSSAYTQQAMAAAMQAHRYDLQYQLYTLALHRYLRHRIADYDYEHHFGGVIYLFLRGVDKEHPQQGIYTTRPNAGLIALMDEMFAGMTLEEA

- stoichiometry N (moles RecB^hCD per mole RecB^n): 0.95
Substance: RecB^1–927CD, truncated RecBCD enzyme lacking the RecB nuclease domain, P08394 1-927; P07648 1-1122; P04993 1-608
